Laboratory results published in patent US20080050387A1, “Non-Androgen Dependent Roles for Androgen Receptor and Non-Androgen Related Inhibitors of Androgen Receptor” (priority 2003, published 2008).
Like-named read-outs stand apart in the source and are kept apart here.

What was measured:
[1] = system: AR (ARN, ARDBD, ARLBD); assay: GST pull-down assay ARA67 / AR; format: binding, human
Method: GST-ARN, GST-ARA67 fusion proteins, and GST control protein were expressed in BL21 (DE3)pLysS bacteria strain (Stratagene) and purified with glutathione-Sepharose beads as instructed by the manufacturer (Amersham Pharmacia). In vitro [^35S]methionine-labeled AR, ARN, AR DBD, AR LBD and ARA67 proteins were generated using TNT-coupled Reticulocyte Lysate Systems (Promega). For in vitro interaction, mixtures of glutathione beads bound GST fusion proteins and 5 μl [^35S]methionine-labeled input proteins in 100 μl interaction buffer (20 mM Tris/pH8.0, 60 mM NaCl, 6 mM MgCl2, 1 mM EDTA, 0.05% Nonidet P-40, 1 mM DTT, 8% glycerol, 1 mM PMSF) were incubated in the presence or absence of 10 μM dihydrotestosterone (DHT) on a rotating disk at 4° C. for 2 h. After washing with NETN buffer (20 mM Tris/pH8.0, 100 mM NaCl, 6 mM MgCl2, 1 mM EDTA, 0.5% Nonidet P-40, 1 mM DTT, 8% glycerol, 1 mM PMSF) four times, the bound proteins were separated on 8-13% SDS-PAGE and visualized by autoradiography.

[2] = system: microtubules; details: in the presence of Mg-ATP; cited from earlier work
[3] = system: AR; assay: AR transactivation reporter gene assay in H1299 cells with ARA67; format: cell-based, human
AR, sequence (P10275 with tags, fused parts or gaps DEL79-80/DUP473-473): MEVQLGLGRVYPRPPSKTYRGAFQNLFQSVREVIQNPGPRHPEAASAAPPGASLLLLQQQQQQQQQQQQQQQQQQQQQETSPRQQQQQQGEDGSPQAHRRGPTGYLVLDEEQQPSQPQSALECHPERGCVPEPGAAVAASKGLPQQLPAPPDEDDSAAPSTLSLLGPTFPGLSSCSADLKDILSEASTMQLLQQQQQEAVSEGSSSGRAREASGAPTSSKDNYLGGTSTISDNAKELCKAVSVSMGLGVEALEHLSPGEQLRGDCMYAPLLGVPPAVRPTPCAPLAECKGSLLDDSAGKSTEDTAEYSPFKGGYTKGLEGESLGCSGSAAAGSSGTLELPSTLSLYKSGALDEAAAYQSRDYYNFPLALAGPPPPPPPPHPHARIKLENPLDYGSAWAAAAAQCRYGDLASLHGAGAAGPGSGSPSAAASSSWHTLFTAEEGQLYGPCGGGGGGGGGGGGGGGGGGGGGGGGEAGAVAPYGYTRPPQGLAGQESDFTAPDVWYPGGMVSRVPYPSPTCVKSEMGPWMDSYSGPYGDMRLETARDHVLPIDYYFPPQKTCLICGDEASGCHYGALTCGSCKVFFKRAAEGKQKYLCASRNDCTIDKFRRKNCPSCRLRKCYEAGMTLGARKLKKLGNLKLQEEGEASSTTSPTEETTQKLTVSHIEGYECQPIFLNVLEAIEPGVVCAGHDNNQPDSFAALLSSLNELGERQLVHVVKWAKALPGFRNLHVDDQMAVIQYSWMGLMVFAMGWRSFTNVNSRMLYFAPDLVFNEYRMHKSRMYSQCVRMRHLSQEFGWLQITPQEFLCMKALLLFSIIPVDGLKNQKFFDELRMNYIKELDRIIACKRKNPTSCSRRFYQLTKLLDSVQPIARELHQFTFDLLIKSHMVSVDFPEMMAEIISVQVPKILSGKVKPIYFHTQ
Method: H1299 and COS-1 cells were maintained in Dulbecco's modified Eagle's medium (DMEM) (Life Technologies, Inc.) supplemented with 10% heat inactivated fetal bovine serum (FBS). LNCap cells were maintained in RPMI 1640 supplemented with […]. All media contain 100 units penicillin, 100 μg/ml streptomycin and 2 mM L-glutamine. Cells were seeded to a density of 50-60% confluency for transfection. In transfections where H1299 and COS-1 cells were used, the calcium phosphate precipitation method was used as described (Pan H J, et al. 1999. Endocrine 11:321-327) unless otherwise noted. […] In other reporter gene assays, where ligand treatment was required, cell culture media were changed to DMEM containing 10% charcoal-dextran-stripped FBS (CD-FBS) 2 h before transfection. After 16-18 h transfection, cells were treated with medium containing either vehicle or ligands for another 20-24 h and then cells were harvested. With LNCap cells transfection, the cells were treated with fresh RPMI 1640 containing 10% CD-FBS before transfection with SuperFect performed according to the manufacturer's protocol (Qiagen). After transfection, cells were allowed to recover in fresh RPMI 1640 containing 10% CD-FBS for 8-12 h, and then treated with either vehicle or ligands for another 20-24 h before harvesting. Each experiment was repeated at least three times.

B1: ARA67: AR N-terminal interacting protein of 585 amino acids (SEQ ID NO:1), matches PAT1; functions as a repressor of AR (protein)
chain: MAAVELEWIPETLYNTAISAVVDNYIRSRRDIRSLPENIQFDVYYKLYQQGRLCQLGSEFCELEVFAKVLRALDKRHLLHHCFQALMDHGVKVASVLAYSFSRRCSYIAESDAAVKEKAIQVGFVLGGFLSDAGWYSDAEKVFLSCLQLCTLHDEMLHWFRAVECCVRLLHVRNGNCKYHLGEETFKLAQTYMDKLSKHGQQANKAALYGELCALLFAKSHYDEAYKWCIEAMKEITAGLPVKVVVDVLRQASKACVVKREFKKAEQLIKHAVYLARDHFGSKHPKYSDTLLDYGFYLLNVDNICQSVAIYQAALDIRQSVFGGKNIHVATAHEDLAYSSYVHQYSSGKFDNALFHAERAIGIITHILPEDHLLLASSKRVKALILEEIAIDCHNKETEQRLLQEAHDLHLSSLQLAKKAFGEFNVQTAKHYGNLGRLYQSMRKFKEAEEMHIKAIQIKEQLLGQEDYEVALSVGHLASLYNYDMNQYENAEKLYLRSIAIGKKLFGEGYSGLEYDYRGLIKLYNSIGNYEKVFEYHNVLSNWNRLRDRQYSVTDALEDVSTSPQSTEEVVQSFLISQNVEGPSC
[1]
  interaction with AR LBD: moderately
  interaction with ARDBD: very weakly
  interaction with ARN: most strongly
[1]; [35S]methionine-labeled ARA67
  interaction with GST-ARN fragment ARN1-140: positive interaction
[1]; listed as full length ARA67
  interaction with ARN: strong interaction
[1]; presence and absence of 10 μM DHT
  interaction with AR, DHT dependence: DHT independent manner
[2]
  enhancement of microtubule binding: 5-10 fold
[3]
  repression of AR activity relative to PR activity: approximately 2.5 times
[3]; H1299 cells, 500 ng pSG5-ARA67, MMTV-Luc, cognate ligand
  suppression on AR activity: 50%
[3]; H1299 cells, MMTV-Luc and ARE4-Luc, 10 nM DHT
  DHT-induced AR transactivation: suppressed
[3]; H1299 cells, PSA-Luc and ARE4-Luc, 10 nM DHT
  ARA70N enhanced AR transactivation: repressed dose-dependently
